Results reported in US20120100139A1 (APTEVO RESEARCH AND DEVELOPMENT, published 2012).

Experiments:
CD86-mIgG (Ancell, Inc) [1] = target: CD86-mIgG (Ancell, Inc) (UniProt P42081); test: SPR (BIAcore T100), CD86-mIgG immobilized on CM5; second site
CD86-mIgG (Ancell, Inc) [2] = target: CD86-mIgG (Ancell, Inc) (UniProt P42081); test: SPR (BIAcore T100), CD86-mIgG immobilized on CM5; steady-state equilibrium fit
CD86-mIgG (Ancell, Inc) [3] = target: CD86-mIgG (Ancell, Inc) (UniProt P42081); test: SPR (BIAcore T100), CD86-mIgG immobilized on CM5; first site
[4] = target: T1, CD80-mIg (Ancell Catalog #510-020) (UniProt P33681 35-242); test: SPR (BIAcore T100), CD80-mIgG immobilized on CM5; bivalent analyte model, first site
T1 construct: Bought reagent; also called CD80-mIgG; sCD80
T1 sequence (looked up): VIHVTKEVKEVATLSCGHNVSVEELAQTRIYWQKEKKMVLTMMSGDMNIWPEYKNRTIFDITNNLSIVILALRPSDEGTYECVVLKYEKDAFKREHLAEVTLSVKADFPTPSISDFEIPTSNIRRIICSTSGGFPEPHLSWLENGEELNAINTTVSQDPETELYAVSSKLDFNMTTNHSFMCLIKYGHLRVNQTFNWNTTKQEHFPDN
Experimental: (§1) Surface plasmon resonance (SPR) measurements were performed on a BIAcore™ T100 SPR (Pharmacia Biotech AB, Uppsala) using HBS-EP+ (GE Healthcare) as a running buffer. […] CTLA4-containing constructs were injected for 150 seconds, at a flow rate of 10 μl/min, in a series of concentrations from 5 nM to 1 μM. Dissociation was monitored for 600 seconds, and the surface was regenerated by injecting 50 mM sodium citrate, 500 mM sodium chloride, pH 4.0, for 60 seconds. […] Data were analyzed using BiaEvaluation for the T100 software (version 2.0.1, GE Healthcare).

[5] = target: T1, CD80-mIg (Ancell Catalog #510-020); test: SPR (BIAcore T100), CD80-mIgG immobilized on CM5; bivalent analyte model, second site
Experimental: as §1

CD86-mIgG (Ancell, Inc) [6] = target: T2, CD86-mIgG (Ancell, Inc) (UniProt P42081 24-247, limits assumed); test: SPR (BIAcore T100), CD86-mIgG immobilized on CM5; steady-state equilibrium fit
T2 construct: Bought reagent
T2 sequence (looked up): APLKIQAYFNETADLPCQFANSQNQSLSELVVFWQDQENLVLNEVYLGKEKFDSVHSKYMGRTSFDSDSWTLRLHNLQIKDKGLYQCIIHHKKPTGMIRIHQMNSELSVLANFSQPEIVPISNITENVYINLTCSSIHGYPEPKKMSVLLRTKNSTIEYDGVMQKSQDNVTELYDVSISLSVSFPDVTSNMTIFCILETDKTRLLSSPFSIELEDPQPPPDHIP
Experimental: (§2) SPR measurements were performed on a BIAcore™ T100 SPR (Pharmacia Biotech AB, Uppsala) using HBS-EP+ (GE Healthcare) as a running buffer. […] CTLA4-containing constructs were injected for 150 seconds, at a flow rate of 10 μl/min, in a series of concentrations from 4 nM to 10 μM. Dissociation was monitored for 600 seconds, and the surface was either regenerated by injecting 50 mM sodium citrate, 500 mM sodium chloride, pH 5.0, for 60 seconds (wild type CTLA4) or 10 mM glycine, pH 1.7 (L104E A29Y CTLA4). […] Data were analyzed using BiaEvaluation for the T100 software (version 2.0.1, GE Healthcare).
SPR measurements were performed as listed above, with the following exceptions: HBS-P+ (GE Healthcare) was used as a running buffer; dissociation was monitored for 1200 seconds; and the surface was regenerated by injecting 10 mM glycine, pH 1.7, for 60 seconds.

[7] = target: T3, Murine CD86-mIgG (R&D Systems, Inc) (murine, UniProt P42082 24-244, limits assumed); test: SPR (BIAcore T100), murine CD86-mIgG immobilized on CM5; bivalent analyte model, first site
T3 construct: also called muCD86
T3 sequence (looked up): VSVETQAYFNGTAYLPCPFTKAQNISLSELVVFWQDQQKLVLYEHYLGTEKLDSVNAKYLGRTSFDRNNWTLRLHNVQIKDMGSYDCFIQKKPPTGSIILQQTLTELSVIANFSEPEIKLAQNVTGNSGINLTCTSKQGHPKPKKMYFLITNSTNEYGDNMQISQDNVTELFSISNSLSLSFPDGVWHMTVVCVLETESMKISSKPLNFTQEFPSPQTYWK
Experimental: (§3) SPR measurements were performed on a BIAcore™ T100 SPR (Pharmacia Biotech AB, Uppsala) using HBS-EP+ (GE Healthcare) as a running buffer. Murine CD86-mIgG (25 μg/mL in 10 mM sodium acetate, pH 4.0, R&D Systems, Inc) was directly immobilized onto a CM5 chip using standard amine coupling chemistry (Biacore Amine Coupling Kit, GE Healthcare), with final immobilization levels of 150, 493, and 746 Ru. CTLA4-containing constructs were injected for 150 seconds, at a flow rate of 10 μl/min, in a series of concentrations from 4 nM to 8 μM. Dissociation was monitored for 600 seconds (CTLA4 constructs) or 1200 seconds (GL1 constructs), and the surface was regenerated by injecting 10 mM glycine, pH 1.7, for 60 seconds. […] Data were analyzed using BiaEvaluation for the T100 software (version 2.0.1, GE Healthcare).

[8] = target: T3, Murine CD86-mIgG (R&D Systems, Inc); test: SPR (BIAcore T100), murine CD86-mIgG immobilized on CM5; bivalent analyte model, second site
Experimental: as §3

[9] = target: T3, Murine CD86-mIgG (R&D Systems, Inc); test: SPR (BIAcore T100), murine CD86-mIgG immobilized on CM5; steady-state equilibrium, multiple Rmax fit
Experimental: as §3

CD86-mIgG (Ancell, Inc) [10] = target: T2, CD86-mIgG (Ancell, Inc); test: SPR (BIAcore T100), CD86-mIgG immobilized on CM5; bivalent analyte model, first site
Experimental: as §2

[11] = target: T1, CD80-mIg (Ancell Catalog #510-020); test: SPR (BIAcore T100), CD80-mIgG immobilized on CM5; steady-state equilibrium fit
Experimental: as §1

[12] = target: T4, PD1 ectodomain fused to a C-terminal AviTag, biotinylated (biotinylated on the AviTag with the BirA enzyme); test: SPR (BIAcore T100), biotinylated PD1 captured on neutravidin; bivalent analyte model, first site
T4 construct: also called biotinylated PD1
T4 chain: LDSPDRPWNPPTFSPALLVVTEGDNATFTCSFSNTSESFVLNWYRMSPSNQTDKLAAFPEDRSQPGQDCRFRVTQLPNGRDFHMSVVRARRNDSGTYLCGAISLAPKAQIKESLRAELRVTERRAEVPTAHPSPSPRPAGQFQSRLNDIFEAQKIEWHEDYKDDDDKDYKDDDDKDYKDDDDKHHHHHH
Experimental: (§4) SPR measurements were performed on a BIAcore™ T100 SPR (Pharmacia Biotech AB, Uppsala) using HBS-P+ (GE Healthcare) as a running buffer. […] PDL1/2-containing constructs were injected for 120 seconds, at a flow rate of 30 μl/min, in a series of concentrations from 6 nM to 2 μM. Dissociation was monitored for 1200 seconds, and the surface was regenerated by injecting 50 mM NaOH, 1M NaCl for 30 seconds.
(§5) Data were analyzed using BiaEvaluation for the T100 software (version 2.0.1, GE Healthcare).

[13] = target: T4, PD1 ectodomain fused to a C-terminal …; test: SPR (BIAcore T100), biotinylated PD1 captured on neutravidin; steady-state equilibrium fit
Experimental: as §4, §5

muIL 10-Ig was tested, and the Second Site ka (CD86-mIgG (Ancell, Inc) [1]) was 0.0203 s⁻¹, the Second Site kd (CD86-mIgG (Ancell, Inc) [1]) was 0.0722 s⁻¹ and the Kd (CD86-mIgG (Ancell, Inc) [2]) was 50.6 nM. The koff (CD86-mIgG (Ancell, Inc) [3]) was 0.00018 s⁻¹ and the kon (CD86-mIgG (Ancell, Inc) [3]) was 94100 M⁻¹ s⁻¹.

B1: CTLA4-Fc fusion containing the L104E A29Y mutations, analogous to belatacept (Fc fusion)
chain: MHVAQPAVVLASSRGIASFVCEYASPGKYTEVRVTVLRQADSQVTEVCAATYMMGNELTFLDDSICTGTSSGNQVNLTIQGLRAMDTGLYICKVELMYPPPYYEGIGNGTQIYVIDPEPCPDSDLEPKSSDKTHTCPPCPAPEAAGAPSVFLFPPKPKDTLMISRTPEVTCVVVDVSHEDPEVKFNWYVDGVEVHNAKTKPREEQYNSTYRVVSVLTVLHQDWLNGKAYACAVSNKALPAPIEKTISKAKGQPREPQVYTLPPSRDELTKNQVSLTCLVKGFYPSDIAVEWESNGQPENNYKTTPPVLDSDGSFFLYSKLTVDKSRWQQGNVFSCSVMHEALHNHYTQKSLSLSPG
notes: the mutations are in the entry
B1 was tested, and the koff [4] was 0.00373 s⁻¹, the kon [4] was 155000 M⁻¹ s⁻¹ and the “Second Site ka” value [5] was 0.00102 s⁻¹. For the same molecule, the “Second Site kd” value [5] was 0.00332 s⁻¹, the Kd (CD86-mIgG (Ancell, Inc) [6]) was 772 nM and the koff [7] was 0.0787 s⁻¹. The kon [7] was 27800 M⁻¹ s⁻¹, the “Second Site ka” value [8] was 0.0728 s⁻¹ and the “Second Site kd” value [8] was 0.168 s⁻¹. For the same molecule, the Kd [9] was 920 nM, the koff (CD86-mIgG (Ancell, Inc) [10]) was 0.0102 s⁻¹ and the kon (CD86-mIgG (Ancell, Inc) [10]) was 84700 M⁻¹ s⁻¹. The Kd [11] was 13.3 nM.

B2: xceptor including a CTLA4 ectodomain with the L104E A29Y mutations and an IL10 domain (Fc fusion)
chain: MHVAQPAVVLASSRGIASFVCEYASPGKYTEVRVTVLRQADSQVTEVCAATYMMGNELTFLDDSICTGTSSGNQVNLTIQGLRAMDTGLYICKVELMYPPPYYEGIGNGTQIYVIDPEPCPDSDLEPKSSDKTHTCPPCPAPEAAGAPSVFLFPPKPKDTLMISRTPEVTCVVVDVSHEDPEVKFNWYVDGVEVHNAKTKPREEQYNSTYRVVSVLTVLHQDWLNGKAYACAVSNKALPAPIEKTISKAKGQPREPQVYTLPPSRDELTKNQVSLTCLVKGFYPSDIAVEWESNGQPENNYKTTPPVLDSDGSFFLYSKLTVDKSRWQQGNVFSCSVMHEALHNHYTQKSLSLSPGQRHNNSSLNTGTQMAGHSPNSSPGQGTQSENSCTHFPGNLPNMLRDLRDAFSRVKTFFQMKDQLDNLLLKESLLEDFKGYLGCQALSEMIQFYLEEVMPQAENQDPDAKAHVNSLGENLKTLRLRLRRCHRFLPCENKSKAVEQVKNAFNKLQEKGIYKAMSEFDIFINYIEAYMTMKIRN
notes: as for B1
For B2, the koff [4] was 0.00235 s⁻¹, the kon [4] was 90800 M⁻¹ s⁻¹ and the “Second Site ka” value [5] was 0.00406 s⁻¹. The “Second Site kd” value [5] was 0.00706 s⁻¹, the Kd (CD86-mIgG (Ancell, Inc) [6]) was 670 nM and the koff [7] was 0.0418 s⁻¹. The kon [7] was 32100 M⁻¹ s⁻¹, the “Second Site ka” value [8] was 0.00026 s⁻¹ and the “Second Site kd” value [8] was 0.00193 s⁻¹. It also gave a Kd [9] of 870 nM, a koff (CD86-mIgG (Ancell, Inc) [10]) of 0.0091 s⁻¹ and a kon (CD86-mIgG (Ancell, Inc) [10]) of 45100 M⁻¹ s⁻¹. The Kd [11] was 19.1 nM.

B3: PDL2-Fc (Fc fusion)
chain: LFTVTVPKELYIIEHGSNVTLECNFDTGSHVNLGAITASLQKVENDTSPHRERATLLEEQLPLGKASFHIPQVQVRDEGQYQCIIIYGVAWDYKYLTLKVKASYRKINTHILKVPETDEVELTCQATGYPLAEVSWPNVSVPANTSHSRTPEGLYQVTSVLRLKPPPGRNFSCVFWNTHVRELTLASIDLQSQMEPRTHPTLEPKSSDKTHTCPPCPAPEAAGAPSVFLFPPKPKDTLMISRTPEVTCVVVDVSHEDPEVKFNWYVDGVEVHNAKTKPREEQYNSTYRVVSVLTVLHQDWLNGKAYACAVSNKALPAPIEKTISKAKGQPREPQVYTLPPSRDELTKNQVSLTCLVKGFYPSDIAVEWESNGQPENNYKTTPPVLDSDGSFFLYSKLTVDKSRWQQGNVFSCSVMHEALHNHYTQKSLSLSPG
B3 gave a koff [12] of 0.00724 s⁻¹, a kon [12] of 165000 M⁻¹ s⁻¹ and a Kd [13] of 42 nM.
